Experimental data reported in the supplement of paper PMC10126150.
± gives the standard deviation of the averaged measurements.

tested on: ATP; test: switch fluorescence ratio, 500 uM ATP over buffer (Cy3 cluster intensity, sum of 5 cycles each) (fold (ratio)); higher = stronger signal-on switching upon ATP binding; sequences stand for … in TCGTCGGCAGCGTCAGATGTGTATAAGAGACAGTTTTTTTTTTTTTTTTTTTTTTTTT…TC; conditions: aptamer strand: ATP DNA aptamer (quencher-CACCTGGGGGAGTATTGCGGAGGAAGG + anchor), 100 nM annealed; ATP concentration: 500 uM
Procedure, shortened: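 Exposure to 500 uM ATP lasted 15 min at 22 °C before imaging, and a selection-buffer image was taken beforehand, for Cy3-labelled switching-strand clusters on a modified Illumina MiSeq flow-cell annealed to 100 nM quencher-labelled ATP aptamer. Five buffer/ATP cycles were run with NaOH stripping and re-annealing between them. The fluorescence ratio per cluster is summed target-cycle over summed buffer-cycle Cy3 intensity, averaged per switch-domain sequence. Clusters outside 100-1000 RFU were excluded.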

| Sequence | switch fluorescence ratio |
| --- | --- |
| TGGATAGGTA | 0.995 ± 0.023 |
| GCCATCCTGC | 1.05 ± 0.042 |
| AAGTTGCGGG | 0.964 ± 0.078 |
| ATTTTAGCTC | 0.984 ± 0.015 |
| CGTACAAAAG | 0.998 ± 0.03 |
| TATAGGTATG | 1.01 ± 0.012 |
| CCACGGGTTA | 1.045 ± 0.005 |
| TTGGGGGGGA | 1.02 ± 0.13 |
| GCGAGGTGGG | 0.999 ± 0.049 |
| ATTCACATAT | 1.11 ± 0.02 |
| GGGACAAGTC | 1.023 ± 0.0067 |
| TATTTTGTGT | 0.998 ± 0.036 |
| GCGGGTACTG | 1.001 ± 0.0052 |
| TAAGATGTTT | 0.957 ± 0.034 |
| CGGGACTTGT | 0.952 ± 0.067 |
| TGGAGAGGGG | 0.996 ± 0.05 |
| AACGGGTGCG | 0.995 ± 0.02 |
| GCGCGCACAT | 1.01 ± 0.048 |
| TGACAATCCT | 1.05 ± 0.016 |
| GAGTGTGTGT | 1.006 ± 0.0053 |
| TACGGGTGGG | 1.169 ± 0.01 |
| AGGAAGTGGT | 0.9671 ± 0.006 |
| CATTGTTTGA | 1.03 ± 0.021 |
| ACGCGGACGG | 1.05 ± 0.016 |
| TATTGAAATT | 1.05 ± 0.022 |

| Sequence | switch fluorescence ratio |
| --- | --- |
| CGTGTACCGG | 1.01 ± 0.0092 |
| CGTATGCAAG | 0.967 ± 0.041 |
| GTGTTTAAGC | 0.978 ± 0.012 |
| TAAGAGCCAT | 1.04 ± 0.013 |
| ATCTATCCTT | 1.01 ± 0.036 |
| GCGTAATGTT | 0.999 ± 0.022 |
| AGCGCTATTT | 1.04 ± 0.065 |
| AGGAGGGACT | 1 ± 0.041 |
| TGGCGAGAGG | 1 ± 0.022 |
| GGGGGTGGTG | 0.988 ± 0.038 |
| CGTGTAAGAT | 1.03 ± 0.047 |
| ATGTAAGATT | 0.9891 ± 0.0047 |
| TTCGACATGT | 1.025 ± 0.0042 |
| TTTAATCGAG | 1.04 ± 0.037 |
| GGATATTTTT | 1.01 ± 0.016 |
| CCAATTGTGG | 0.9977 ± 0.0056 |
| TGATCGGATA | 1 ± 0.04 |
| CTAATGGACA | 1.01 ± 0.025 |
| TTGTTGGCGA | 1.04 ± 0.023 |
| TATAGCAGTT | 1.01 ± 0.013 |
| TGTTCAAAAC | 1 ± 0.086 |
| CATTTGTCCG | 1.01 ± 0.071 |
| TAGTTGGTCG | 1.02 ± 0.049 |
| ATTTTAATCG | 0.985 ± 0.03 |
| GGGGGTGTAA | 0.986 ± 0.018 |

| Sequence | switch fluorescence ratio |
| --- | --- |
| GAGCGGGTAC | 1.41 ± 0.03 |
| GCTGGTTAAA | 0.97834 ± 0.00053 |
| CCTGAGACAC | 1.08 ± 0.052 |
| GGTGCATGTG | 0.9713 ± 0.0013 |
| AAGCGGTGGG | 1.05 ± 0.032 |
| AGAGACACAT | 1 ± 0.0086 |
| CCAAGGATAA | 1.047 ± 7.2e-05 |
| ATATGAGGTT | 0.977 ± 0.023 |
| GGGGCCGGCG | 1.08 ± 0.11 |
| GCTCAATTGG | 1.018 ± 0.006 |
| TTTGCTATCA | 0.984 ± 0.013 |
| ATCGTTGTGG | 0.9893 ± 0.0048 |
| AGAGGGTCCT | 1.03 ± 0.034 |
| TGGTGGCCGG | 1.02 ± 0.019 |
| TTATGCTATT | 1 ± 0.022 |
| TAAAGCAGGC | 1.11 ± 0.14 |
| CGGATTGAAG | 1.007 ± 0.0092 |
| TGGGGGACGG | 1 ± 0.035 |
| TTACGTAGAT | 1.12 ± 0.077 |
| AATAATAAAC | 1.006 ± 0.0047 |
| ACGGGGCCGT | 0.985 ± 0.031 |
| CGGAGGGGGT | 1.016 ± 0.0052 |
| TTGGAGTATA | 1.93 ± 0.28 |
| TGTGTTCCTC | 1.08 ± 0.013 |
| AAAGTAGTAA | 1.01 ± 0.037 |

| Sequence | switch fluorescence ratio |
| --- | --- |
| TTAGTAGATT | 0.991 ± 0.036 |
| TGCATTTTTG | 1.06 ± 0.053 |
| CAAGGAAGAT | 1.02 ± 0.014 |
| ATCGATGCTT | 0.979 ± 0.012 |
| CGCGCATGGT | 1.14 ± 0.033 |
| TTGGATTGAC | 1.06 ± 0.025 |
| CTTAGTTGGT | 0.965 ± 0.012 |
| AATACCCGGG | 1.021 ± 0.0045 |
| AATCATTGTT | 1.02 ± 0.026 |
| CGAATAAGCG | 0.995 ± 0.023 |
| ATTGAATTAG | 0.961 ± 0.011 |
| TTTCAATAAT | 0.988 ± 0.023 |
| ACGTATTACA | 1.83 ± 0.87 |
| GGGGGCGGTA | 1.02 ± 0.059 |
| GAGTGGGCTC | 0.9879 ± 0.0045 |
| AAGGGGAAAA | 0.983 ± 0.02 |
| ATTCAGATCG | 0.999 ± 0.034 |
| CAAATGTGCT | 0.986 ± 0.015 |
| AAAACCAGCG | 1.03 ± 0.047 |
| TGCAGCATCA | 1.11 ± 0.012 |
| TAGGATGCAG | 0.957 ± 0.042 |
| AAAATAATCT | 0.9793 ± 0.004 |
| GTGTTACGTT | 1.02 ± 0.021 |
| CCACGGTTAG | 0.981 ± 0.023 |
| AGATTGATGG | 0.9848 ± 0.0026 |

| Sequence | switch fluorescence ratio |
| --- | --- |
| CTGCAAGGGT | 1.214 ± 0.011 |
| TCCGAGAGAG | 1.25 ± 0.053 |
| TTTGCTTAGA | 1.04 ± 0.025 |
| GGGGTTCGTA | 0.966 ± 0.028 |
| TGGGGGAGTT | 0.994 ± 0.026 |
| ATAAGAAATA | 0.996 ± 0.027 |
| AGTTTTTAGC | 1.01 ± 0.047 |
| TTGGTATGAG | 0.997 ± 0.013 |
| AGTGTGGGTA | 0.99 ± 0.021 |
| AAGTTTTGGC | 1 ± 0.035 |
| TTTTTAATTA | 1.005 ± 0.008 |
| GAGAAGGAGG | 1.01 ± 0.012 |
| AATGGATACT | 1.03 ± 0.012 |
| CTAGGAGGGC | 1 ± 0.027 |
| CACTTCTTAT | 0.973 ± 0.021 |
| AAGGTTGGGG | 0.994 ± 0.017 |
| GCTTCGAGGG | 0.968 ± 0.013 |
| GTCAGTAGGC | 0.991 ± 0.017 |
| TTTCCAAGGT | 1.12 ± 0.11 |
| TATACATTGG | 0.98862 ± 5.5e-05 |
| GGGTGGACCT | 1.13 ± 0.048 |
| AACGACTGGG | 0.997 ± 0.051 |
| TTCAAGGGGT | 0.994 ± 0.025 |
| ATATGTTGTC | 0.894 ± 0.11 |
| CATATTGGGG | 0.963 ± 0.022 |

| Sequence | switch fluorescence ratio |
| --- | --- |
| CGTAGTTTAG | 1.05 ± 0.027 |
| TAAAAGGTAC | 1.07 ± 0.07 |
| GGATAGGATG | 0.974 ± 0.022 |
| TTAATAGTGG | 1.03 ± 0.073 |
| GGAGGTGGGT | 1.01 ± 0.03 |
| TTGTTAGGGG | 0.986 ± 0.019 |
| TCAGTCAAGG | 0.9745 ± 0.0044 |
| ACATAGAGAT | 1.02 ± 0.039 |
| GATTAATTAC | 1.06 ± 0.018 |
| CGGTCCCATT | 0.992 ± 0.047 |
| TATGTTGTGT | 0.96 ± 0.037 |
| TTGAGTTATT | 0.96 ± 0.031 |
| AATAGTTTG | 1.01 ± 0.017 |
| GCTTGCTTTT | 0.989 ± 0.022 |
| TTAATAGTGT | 1 ± 0.013 |
| TGATTCTCTT | 1 ± 0.027 |
| TAAAGAAGGG | 0.988 ± 0.033 |
| CTTTTAAGGT | 0.984 ± 0.03 |
| AGTAGGGGG | 1 ± 0.056 |
| TGTTGCCTGG | 0.978 ± 0.023 |
| TTGATCAGGC | 0.996 ± 0.016 |
| TTGAGCCCCG | 0.951 ± 0.047 |
| GATCGGTAAT | 1.04 ± 0.028 |
| CACCCGGCGC | 1.17 ± 0.13 |
| GGCTACCAGT | 0.96 ± 0.038 |

| Sequence | switch fluorescence ratio |
| --- | --- |
| CCGTCGATGG | 1.1 ± 0.036 |
| CGTGTGTGTA | 1.07 ± 0.05 |
| TGTATGTTTT | 0.962 ± 0.046 |
| TTGGTTAGCC | 0.975 ± 0.078 |
| AGTCGCCCGC | 1.02 ± 0.032 |
| TAAGGTAAGG | 1.01 ± 0.031 |
| AAGGGGATTG | 0.986 ± 0.042 |
| CGCGGTGGGA | 1.02 ± 0.026 |
| AGTTTGAAAG | 1.01 ± 0.017 |
| ACTCTTACTT | 1.157 ± 0.0042 |
| TGTTTTAGGC | 0.977 ± 0.02 |
| AACTTTAGGT | 0.987 ± 0.023 |
| TTTTATATTT | 1 ± 0.034 |
| TGATATTCGA | 0.997 ± 0.012 |
| ATTGATGAGT | 0.993 ± 0.04 |
| TTGTTGAGAT | 1.02 ± 0.035 |
| CAAGAAAGTT | 0.964 ± 0.034 |
| ATTCCAAGTG | 1.03 ± 0.056 |
| GGCACATTTT | 1.01 ± 0.022 |
| ACAAACGGGT | 1.44 ± 0.073 |
| TGGGCGGTGC | 1.93 ± 1.2 |
| TGGGGGCAAG | 0.987 ± 0.018 |
| TCAACGGGTA | 1.01 ± 0.021 |
| CTACTAATTA | 1.026 ± 0.0031 |
| TTTAGTCATT | 0.989 ± 0.04 |

| Sequence | switch fluorescence ratio |
| --- | --- |
| TAAGTGTATG | 1.007 ± 0.0034 |
| GGTCGGGAGA | 0.96 ± 0.039 |
| CTGACACCCG | 1.07 ± 0.039 |
| TTAAGGACGT | 0.984 ± 0.016 |
| TATAAAGGG | 0.956 ± 0.022 |
| GGTCCTTGTT | 1.005 ± 0.0018 |
| TACCTTTTGG | 0.99 ± 0.026 |
| TACTTTTGCA | 0.985 ± 0.025 |
| GGGATTTTTA | 0.987 ± 0.018 |
| TGCTATAATG | 1.02 ± 0.021 |
| ATTAGGTTTC | 1.01 ± 0.062 |
| TTGAGGTTGT | 0.99 ± 0.028 |
| CCTCATTGGT | 1.026 ± 0.0093 |
| TTGGGTGTGG | 1.01 ± 0.037 |
| TCAGGGGTTT | 1.3 ± 0.53 |
| AGTTCCATTT | 0.97 ± 0.028 |
| GCTAGGTGTA | 1.12 ± 0.043 |
| TGGGTGGGCT | 0.975 ± 0.011 |
| GGTGAGACTT | 1 ± 0.031 |
| GTTAGTTGTT | 0.987 ± 0.013 |
| TGAAGTTTTT | 1.02 ± 0.064 |
| AGACGGACGT | 1.05 ± 0.013 |
| CATTTACACT | 1.05 ± 0.059 |
| TAATGAGTGG | 1.0154 ± 0.001 |
| TTTTCCGGGC | 1.1 ± 0.014 |
